Data reported in US20240317834A1, “COMPOSITIONS AND METHODS FOR NEUROLOGICAL DISEASES” (CODA BIOTHERAPEUTICS, INC., priority 2020, published 2024).
Residue numbers refer to the chain shown, from its start. In names and notes the source's numbering stands.

Test system: Lenti-X 293T cells
Assay: YFP fluorescence quenching anion reporter plate reader assay of engineered receptors stimulated with acetylcholine or a non-native ligand
Assay type: cell-based
Conditions: for percent quench of YFP fluorescence, 10 uM ach: acetylcholine 10 uM; for percent quench of YFP fluorescence, 100 uM ach: acetylcholine 100 uM; for percent quench of YFP fluorescence, 1 mM ach: acetylcholine 1 mM; for percent quench of YFP fluorescence, 3 mM ach: acetylcholine 3 mM
Summary of the method: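 Lenti-X 293T cells carrying a YFP anion reporter were transiently transfected with channel DNA and assayed the next day in HEPES-buffered ECS at pH 7.2. Ligand (acetylcholine or non-native ligand) was added in NaI-substituted ECS. Percent quench was the mean of the last 10 s relative to the 15 s pre-addition baseline.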

B1: CODA407: engineered chimeric LGIC receptor, Y210F in SEQ ID NO: 33 (protein)
chain: MRCSPGGVWLALAASLLHVSLQGEFQRKLYKELVKNYNPLERPVANDSQPLTVYFSLSLLQIMDVDEKNQVLTTNIWLQMSWTDHYLQWNVSEYPGVKTVRFPDGQIWKPDILLYNSADERFDATFHTNVLVNSSGHCQYLPPGIFKSSCPMDLKNFPMDVQTCKLKFGSWSYGGWSLDLQMQEADISGYIPNGEWDLVGIPGKRSERFFECCKEPYPDVTFTVTMRRRMGYYLIQMYIPSLLIVILSWISFWINMDAAPARVGLGITTVLTMTTQSSGSRASLPKVSYVKAIDIWMAVCLLFVFSALLEYAAVNFVSRQHKELLRFRRKRRHHKSPMLNLFQEDEAGEGRFNFSAYGMGPACLQAKDGISVKGANNSNTTNPPPAPSKSPEEMRKLFIQRAKKIDKISRIGFPMAFLIFNMFYWIIYKIVRREDVHNQ
modifications: synthetic sequence of chimeric LGIC
YFP fluorescence quenching using CNL001 (1 nM CNL001, first column): −10.845% | YFP fluorescence quenching using CNL001 (1 nM CNL001, second column): −2.629% | YFP fluorescence quenching using TC-5619/Bradanicline (3 nM brd): −0.53% | YFP fluorescence quenching using Varenicline (3 nM var, first column): 2.441 | YFP fluorescence quenching using Varenicline (3 nM var, second column): 7.326 | YFP fluorescence quenching using CNL001 (10 nM CNL001, first column): 4.66% | YFP fluorescence quenching using CNL001 (10 nM CNL001, second column): 12.246% | YFP fluorescence quenching using TC-5619/Bradanicline (30 nM brd): 8.71% | YFP fluorescence quenching using Facinicline (30 nM fac): −21.94 | YFP fluorescence quenching using Varenicline (30 nM var, first column): 1.275 | YFP fluorescence quenching using Varenicline (30 nM var, second column): 12.96 | YFP fluorescence quenching using CNL001 (50 nM CNL001, first column): 29.307% | YFP fluorescence quenching using CNL001 (50 nM CNL001, second column): 41.78% | YFP fluorescence quenching using ABT-126 (50 nM abt): −13.07% | YFP fluorescence quenching using CNL001 (100 nM CNL001, first column): 50.654% | YFP fluorescence quenching using CNL001 (100 nM CNL001, second column): 62.054% | YFP fluorescence quenching using CNL002 (100 nM CNL002): −12.47% | YFP fluorescence quenching using ABT-126 (100 nM abt): 0.1% | YFP fluorescence quenching using AZD-0328 (100 nM azd0328): 0.85% | YFP fluorescence quenching using ABT-126 (300 nM abt): 5.97% | YFP fluorescence quenching using AZD-0328 (300 nM azd0328): 1.25% | YFP fluorescence quenching using TC-5619/Bradanicline (300 nM brd): 76.26% | YFP fluorescence quenching using Facinicline (300 nM fac): −22.46 | YFP fluorescence quenching using Varenicline (300 nM var, first column): 13.119 | YFP fluorescence quenching using Varenicline (300 nM var, second column): 2.355 | YFP fluorescence quenching using Varenicline (500 nM var, first column): 11.539 | YFP fluorescence quenching using Varenicline (500 nM var, second column): 6.571 | YFP fluorescence quenching using CNL001 (1 uM CNL001, first column): 81.742% | YFP fluorescence quenching using CNL001 (1 uM CNL001, second column): 81.304% | YFP fluorescence quenching using CNL002 (1 uM CNL002): −3.93% | YFP fluorescence quenching using ABT-126 (1 uM abt): 50.23% | YFP fluorescence quenching using TC-6987 (1 uM tc6987): −15.22 | YFP fluorescence quenching using Varenicline (1 uM var, first column): 8.397 | YFP fluorescence quenching using Varenicline (1 uM var, second column): 7.309 | YFP fluorescence quenching using TC-6987 (10 uM tc6987): −19.89 | YFP fluorescence quenching using CNL002 (30 uM CNL002): 80.97% | YFP fluorescence quenching using AZD-0328 (30 uM azd0328): 82.08% | YFP fluorescence quenching using Facinicline (30 uM fac): 82.63 | YFP fluorescence quenching using TC-6987 (500 uM tc6987): −33.32 | percent quench of YFP fluorescence, 10 uM ach: −3.75% | percent quench of YFP fluorescence, 100 uM ach: −1.6% | percent quench of YFP fluorescence, 1 mM ach: 71.65% | percent quench of YFP fluorescence, 3 mM ach: 79.09%

B2: CODA409: engineered chimeric LGIC receptor, Y210W in SEQ ID NO: 33 (protein)
chain: B1 chain with F210W
modifications: synthetic sequence of chimeric LGIC
YFP fluorescence quenching using CNL001 (1 nM CNL001, first column): −8.914% | YFP fluorescence quenching using CNL001 (1 nM CNL001, second column): −14.319% | YFP fluorescence quenching using TC-5619/Bradanicline (1 nM brd): −13.45% | YFP fluorescence quenching using TC-5619/Bradanicline (3 nM brd): −0.64% | YFP fluorescence quenching using Varenicline (3 nM var, first column): 7.776 | YFP fluorescence quenching using Varenicline (3 nM var, second column): −2.964 | YFP fluorescence quenching using CNL001 (10 nM CNL001, first column): −1.444% | YFP fluorescence quenching using CNL001 (10 nM CNL001, second column): 4.393% | YFP fluorescence quenching using TC-5619/Bradanicline (10 nM brd): 37.3% | YFP fluorescence quenching using TC-5619/Bradanicline (30 nM brd): 76.36% | YFP fluorescence quenching using Facinicline (30 nM fac): −10.93 | YFP fluorescence quenching using Varenicline (30 nM var, first column): −5.568 | YFP fluorescence quenching using Varenicline (30 nM var, second column): 3.024 | YFP fluorescence quenching using CNL001 (50 nM CNL001, first column): 11.897% | YFP fluorescence quenching using CNL001 (50 nM CNL001, second column): 11.434% | YFP fluorescence quenching using ABT-126 (50 nM abt): 8.23% | YFP fluorescence quenching using CNL001 (100 nM CNL001, first column): 12.719% | YFP fluorescence quenching using CNL001 (100 nM CNL001, second column): 16.053% | YFP fluorescence quenching using CNL002 (100 nM CNL002): −14.92% | YFP fluorescence quenching using ABT-126 (100 nM abt): 55.53% | YFP fluorescence quenching using AZD-0328 (100 nM azd0328): −6.57% | YFP fluorescence quenching using TC-5619/Bradanicline (100 nM brd): 72.72% | YFP fluorescence quenching using ABT-126 (300 nM abt): 74.82% | YFP fluorescence quenching using AZD-0328 (300 nM azd0328): −4.84% | YFP fluorescence quenching using TC-5619/Bradanicline (300 nM brd): 75.47% | YFP fluorescence quenching using Facinicline (300 nM fac): −5.82 | YFP fluorescence quenching using Varenicline (300 nM var, first column): 2.815 | YFP fluorescence quenching using Varenicline (300 nM var, second column): 3.06 | YFP fluorescence quenching using ABT-126 (500 nM abt): 77.39% | YFP fluorescence quenching using Varenicline (500 nM var, first column): 1.766 | YFP fluorescence quenching using Varenicline (500 nM var, second column): 2.819 | YFP fluorescence quenching using CNL001 (1 uM CNL001, first column): 14.077% | YFP fluorescence quenching using CNL001 (1 uM CNL001, second column): 15.495% | YFP fluorescence quenching using CNL002 (1 uM CNL002): −0.85% | YFP fluorescence quenching using ABT-126 (1 uM abt): 77.77% | YFP fluorescence quenching using TC-5619/Bradanicline (1 uM brd): 78.73% | YFP fluorescence quenching using TC-6987 (1 uM tc6987): 62.82 | YFP fluorescence quenching using Varenicline (1 uM var, first column): 1.844 | YFP fluorescence quenching using Varenicline (1 uM var, second column): −4.059 | YFP fluorescence quenching using ABT-126 (3 uM abt): 69.33% | YFP fluorescence quenching using ABT-126 (10 uM abt): 74.79% | YFP fluorescence quenching using Facinicline (10 uM fac): 60.97 | YFP fluorescence quenching using TC-6987 (10 uM tc6987): 78.66 | YFP fluorescence quenching using CNL002 (30 uM CNL002): 29.62% | YFP fluorescence quenching using ABT-126 (30 uM abt): 75.61% | YFP fluorescence quenching using AZD-0328 (30 uM azd0328): 81.64% | YFP fluorescence quenching using Facinicline (30 uM fac): 57.77 | YFP fluorescence quenching using ABT-126 (50 uM abt): 75.72% | YFP fluorescence quenching using ABT-126 (100 uM abt): 78.52% | YFP fluorescence quenching using TC-6987 (500 uM tc6987): 70.35 | percent quench of YFP fluorescence, 10 uM ach: −5.43% | percent quench of YFP fluorescence, 100 uM ach: 17.14% | percent quench of YFP fluorescence, 1 mM ach: 78.84% | percent quench of YFP fluorescence, 3 mM ach: 78.55%
